For 34 sequences, protease stability score results are on record in the NTF2 design screens of Basanta et al. (2020).

The data set is described as follows: protease stability score; higher = more stable; yeast display proteolysis, trypsin and chymotrypsin.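 Note: relative to predicted unfolded state with 0 unfolded-like and 1 meaning tenfold more protease.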
For “SEEEEYLRRVAELILRLLITGDEDEHHNLADPNTLVLIDINGVHIRDHGWWALRRWWEELERRVPGMRVRPRNMTVQGEKVILHMETVIGDKRLRLDFYHLVIDGKITSVEIKVDES”, the protease stability score amounted to 2.4. Under “SHEEEDEHRLVIEWLEAVLTGDEDRLTELFDPNMRFVFENHQVHGRERVSKLLVRHMLEWRTRVKIEDMEYFNGRLHIDMELHVDVNGRHVNIKSLLIVEKINGKWFVRSVRVR” stands 0.534. With “DHLEELHETITKLWLEARRTGDEHLFRELMDPHVRIHIGDFEHHGREEALKAFDDIDRHLGVKHHHVDSWHVVNGQMIIDGRLHFDGQTRKVHIDLVIIDGRIEEIREEIR” the figure was 0.617; with “DEDQKFAMEVLELLVRAKVTGNEELLEKLLDPHTRVDINGREIHGWEEMLRILHEWRIRDLEFRVRDIHIIDGRLKIDGEERVEGEIDGRNMEIKYRTEVYYEKINGRWIVREMSVR”, 1.75. With “TEDDEILREALEIWRYVEQTGDEEDTHRMVDPHAKMIFNGKEIHGREHISRWMKEIRIHELRVHSFRVIDGRLILEVELVGRFNGREDTIEVEIISEKVDGRWVVSSLTIR” the figure was 1.29; with “DEEEEDIRRAVTRFIEVILTGDEHSLERLMDPHVKIDIGDKHLHGREAKDRLRDEMRRKFKNLRIHMRDWHLEIYDGVAHSTFDFELEINGKRTHLELRVDVRKVDGRWLIDSYEIKIR”, 1.15. Consider “DDEEKETEDFLRLLIEFLLTGDEERLKDLLDPNTRLEYGEFDFVGREHVLEWRHHYRKILGAKHRELRIEHLHVIDGRVNAISRVHLRFDGREYSHETIIIIEKVNGKWLLHSEEIR”, for which the protease stability score worked out at 1.33. With “SEEEENIEHSLRIMNENLETGDEHSLAELFDPNAKIDIGDKHLHGRETLITHLVLLGIKHSSIINREYHMIGEWAHINGDLRIEIGDKERHHDVRILSRKIDGRWVVTEFHIR” the figure was 1.19; with “TEEERDMKHLAELALESFLTGDFEIIKKLADPNVRSVIDGRDYHGMEEVHRYLEELLRMLGVKVSRIEDERLRIINGRVTVETDIRLNVDGKIFRVTLHFFFHKFNGRWRIEEIRIHIE”, 0.537. Under “DEWLEMAMRIIFRYLLLLATGDEDIVNHYMDPNVKIDVNGREEHGRERALEQLEEIRRQYPGLTLTHLHIEDLKVVGNYVRVDGYVEGRIDGRRIELKTEFIILKINGRWRMHSVKEH” stands 1.74. With “SDEEKDAKRAIEIYLRMVETGDEETSKELMDPNVRMHVNGQDVHGRERVAKLFHELSRRIDHHEVRLDRWDVQGDKLIIHTEIIWRVNGVEIRRRTLIIMRKFNGRWYIEELNIE” the figure was 0.181; with “SEEEEQSRIAIELVKEVHDTGDEHLLKRLMDPNAKVDIGDKTHHGREIFSHLVHRWFHTLGVDHVKIHDLDFQGDFMIIHMVEVIGDKHVHVHIYTLKVNGRWYIRHLRVERR”, 0.967; with “SHVEEESREAIERFEHLLRTGNEEELENLADPNVLLRVNGKEIWGRERAIKHIIHEMTRVKNMKLTSESFEISENHIHFKFTLTINGKIIHLEIVTKKVDGRWVIKHVEFH”, 1.32. For “SEDERDAQHFIELWDEAMRTGDFELLHYLMDPHTRILVNGRNLHGWEIYHKLLHEIRVKDSRSEDSRVIGDKVRVDQRVHGIVNGVETDLKTHLITEKFNGRWHYRSVEIK”, the protease stability score is -0.189.

“DHTEHDARLVMEIWLRILLTGDWETLEKMLDPHVRLQINIGDKRHTHHGREDFLKRLYDLIRELGVDHWTLDEKRVQGNKTRARVTMYVGDKSYDVEIILVAVNGRIREVTIEIH”: the protease stability score was 2.08.

For the sequence “DEHREFAKHVLEALVRALETGDEDTIRELFDPNYRIEIGDKTVIGRKYWELFIRRVDHIEVHIIIRDFDVQGNKVIIRGDSHIHLNYDGRTLDIQHHVNFVIRKVDGKWVFHSEHFI”, the protease stability score amounted to 1.79. With “TEDDHKFEEAMRLWEHIEKTGDPHTASKMLDPNVRIYINGRELHGRHLFEHLEEHWLLELRLKHVQIQHIEVIDGRLEFDVEVNGQQGDKDIRMRVNVTVHKIDGRWFLKMVSFE” the figure was 0.705; with “DEDKKWVDEMIRLLLEYWRTGDEERIRQLADPNVRTHINGKEIHGMEIHLQYLREFMETFGVDHVELRIHHKDIQGDKIHLHVEIIYTVGDKEHRQEVHFRARKINGKWMIEHVEIK”, 1.25; with “NHQQIAFHFLWDIVEYLLMTGDEHILEKYADPTVKTLVDGRELHGREDVIRFFHEMFKRIDHIQDVKLHDYRFQGNKVEIDSRIIGTIDGQRDVITVTWRVLKVDGRWLIHTVELH”, 1.69. Under “SELDTLVEEVAEIIVKYLITGDEDSLLKMLDPNMRTDINGREIHGREVTHEFLRQEKERLGVSRIQMRLESFRVQGDKIIIHGTLHYNGKDFEVIVIIIVWNGRIREIRIEIR” stands 1.4.

For “DDLEHDHKTVLELLKHLEETGDWDRLAKLADPNVRLQIGDKEWHGRRDMAKVLKRFIEEMRIQHIRFRDMKIQGDKLVFDTELDFEQGDKTVHVRTEIILVVVNGQLKSIEIRIE”, the protease stability score was 2.44. With “SEKERMIREMLEETMRSLKTGDEDSIHRLFDPHTRSEIDGKEYHGREEVSKWVRHARIHDFQLEDVRIQGNKAILIGVMHGRVDGRKFTTEVRIFSVKVDGQWVNENLELH” the figure was 0.993; with “DREELLMLFLKSWLTGDEHILKELLDPHVRMDVDGVEQHGRDVLLHLLHHLSRYMGVDHHRIERFEVQGDKIFINLRIHWNGVESELEIILFVIDGKIKEVEIRSRDEDHKRMVKESWR”, 1.19. Under “SEEQENAERILRMWIHALETGDEHTQKRLLDPNVRDEVNGVEFHGRERAVKLMNDLHEELRIKDWIPRDIHLVNGVLILHVEVRLEVDGQSRNHEVIIVIKKVNGRWFIHRIHVR” stands 1.45. With “DEERKFWEEVMRLMREAFETGDEHLIERMADPHVRINIIVDGREIEFHGWEILVDLMKFVKGMQFTLKDSDIINGVLKIDGKTRQGDKITDVEIEFHVVNGRVKEIHVHIL” the figure was 2.48; with “NELEEEAHRKMEKVLRHLQTGDEDSLHRLLDPNVRLIVGDKEMHGRERAVEVLSRILKEMGVKHIKLRRFSVFNGVAHTDSELNQGEYVHNLHLVIEKVDGQWVMRSLHIE”, 1.41. “DEDTKIIKEMLDEMVHATLTGNEDLLRELVDPEVRIRVGDKEKHGWEFLFHMLKHLRIDRSEITIHSIRVVNGRVEVDGELRIIFTIGDKHIEFSTRVHIILEKVDGRWRVQALLFH” returned a protease stability score of 0.688. With “SENEETAEDVIELVIEAWVTGDEDLFLSLLDPRVRLEVNGVHHHGRERVLEEIIKNLETLGVDHIEIRIREIKLIGEWVEIHGELIYRYNGVHERRDVEIIAFKFNGRWVLRSLRVR” the figure was 1.82; with “EENREITEKIMRHWLTLFLTGDFERLIELMDPEVKFLIDGRELHGWEVWRKLMTLTIRRYKNIRIHITSIDVFENHTHVETYENVNGVHIDTRLNLFLVNGRIQSIEMDTK”, 1.7; with “DEDEKNMHIAMEIYRESVETGNEKMHRHLLDPHARIRFDGQEFHGWKDAHRFMHHRTHEWRDHHIQLRDRDYIDGRVHIRVIIYGEFNGVRTTRDIEIHVEKIDGRWYFTNLIFG”, 0.285. Under “NHDEEKTHEFKEKWMKDVTTGNEEEISKLMDPNAKIVVNGREYHGREKMWETIHRLLKILGISRVEVRIESVHIYDGRIEIHMRVHAENHESHIIVHVEKIDGRWSSKHLRID” stands 0.968. In turn, “SEEEEIVREALKIWFHAMITGDERTLNEMVDPNVRVDVDGKELIGRKHMVELLRRFKNITIRHWHIKHLDIQGDKIEIDTRLDVEVNGRQEILTEKFHARKVDGRWFLSTREER” had a protease stability score of 2.19.

“DETSREEEEHARLWTHAWLTGDEELFKKLADPHVKTEIDGRDLIGRDEMTRMFHDLLRELGVKHSTIEEIHIVNGRVEIRISIEVDGRPIKVRIHVEFFNGRVQRIQIRYE” had a protease stability score of 0.903. Under “DEDKDLIDLHFEIYQQVVLTGDFRKFRRLFDPNTRWEIGDKEFHGREHLSKLHKDLLEHLGVRVREVELHNFHIQGDKIHLDTRIHVHAENHHMIHITEIISTKIDGRWIITELRLR” stands 0.826.
